Key:
[1] = molecular target: recombinant human IL-15 (Prospec cat no. CYT230) (human, UniProt P40933 49-162); experiment: ELISA, plate-bound human IL-15; printed as BC50 (half-maximal binding concentration)
Experimental: (§1) Maxisorp plates were coated with recombinant human IL-15 (Prospec cat no. CYT230) or Rhesus macaque IL-15 (MyBiosource cat. no. MBS948894) at 100 ng/well in carbonate coating buffer for 2 hours at 37° C. Since published sequences of Rhesus macaque and Cynomolgus monkey IL-15 are identical, such recombinant IL-15 protein was referred to as Macaque Monkey IL-15. Tested human IL-15 recombinant protein has a sequence identical to that provided in SEQ ID NO: 1 but with an additional methionine at the N-terminal position as usually done for expressing recombinant proteins in E. Coli. Tested recombinant Macaque Monkey IL-15 was produced in yeast and has a sequence identical to that provided in SEQ ID NO: 4 but with an additional N-terminal His tag.
(§2) The plate was then blocked with 2% normal goat serum for 30 min at 37° C. and washed 6 times with PBS-Tween (0.05% Tween-20 in PBS, v/v). Test antibodies were added to the plate in triplicate at various dilutions in PBS-Tween and the plate was incubated with gentle rocking at room temperature for 2 hours. The plate was then washed 6 times with PBS-Tween and an appropriate dilution of goat anti-human IgG antibody (Millipore cat. no. AP309P) conjugated to horseradish peroxidase (HRP) was added to the plate and left rocking at room temperature for 1 hour. The plate was then washed 6 times with PBS-Tween and incubated with TMB substrate. The reaction was stopped by the addition of 1M H₂SO₄ and read at 450 nm. Dose response curves of absorbance versus concentration were plotted and analyzed to determine half-maximal binding concentrations (BC₅₀) using the Graphpad Prism software. BC₅₀ values expressed as molarity were extrapolated from concentration in ng/ml using a 150 kDa molecular weight value for all antibodies.

[2] = molecular target: T1, recombinant Macaque Monkey IL-15 (MyBiosource cat. no. MBS948894) (Rhesus macaque / Cynomolgus monkey, UniProt P40221 49-162 (Chlorocebus aethiops entry)); experiment: ELISA, plate-bound Macaque Monkey IL-15; printed as BC50 (half-maximal binding concentration)
T1 construct: Produced in yeast; also called Rhesus macaque IL-15; recombinant monkey IL-15; not shown: additional N-terminal His tag
Experimental: as §1, §2

recombinant human IL-15 (Prospec cat no. CYT230), sequence (P40933 other isoform, or with tags, fused parts or gaps): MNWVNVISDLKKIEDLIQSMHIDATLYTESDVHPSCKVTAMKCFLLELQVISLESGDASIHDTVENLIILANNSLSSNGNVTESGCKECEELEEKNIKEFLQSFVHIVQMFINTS
T1 sequence (P40221 49-162): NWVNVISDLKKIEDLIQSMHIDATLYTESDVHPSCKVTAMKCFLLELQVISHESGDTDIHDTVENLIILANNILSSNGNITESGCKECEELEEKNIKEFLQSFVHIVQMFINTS

Binder | EC50 [1] [nM] | EC50 [2] [nM]
huB-E29-3 (antibody, human IgG1, kappa, V domains shown, Humanized B-E29 variant; human IgG1 (G1m3) / kappa (Km3), produced in CHO cells; also called huVH3/huVL1) VH: EVRLMASGGGLVQPGGSLRLSCAASEFTFSNYAMSWVRQAPGKGLEWVSTISRGGDYTYYPDSVKGRFTISRDNSKNTLYLQMNSLRAEDTAVYYCARRVSMITGGWAMDYWGQGTLVTVSS VL: DVVMTQSPLSLPVTLGQPASISCRSSQSIVDITGNTYLEWYQQRPGQSPRLLIYKVFNRFSGVPDRFSGSGSGTDFTLKISRVEAEDVGVYYCFQDSFVPYTFGQGTKLEIKR | 2.62 | 
huB-E29-31 (antibody, human IgG1, kappa, V domains shown, Humanized B-E29 variant; human IgG1 (G1m3) / kappa (Km3), produced in CHO cells; also called huVH20/huVL6) VH: EVRLMASGGGLVQPGGSLRLSCAASEFTFSNYAMSWVRQAPGKGLEWVATISRGGDYTYYPDSVKGRFTISRDNSKNTLYLQMNSLRAEDTAVYYCARRVSFITGGYAMDYWGQGTLVTVSS VL: DVVMTQSPLSLPVTLGQPASISCRSSQSIVDITGNTYLEWFQQRPGQSPRRLIYKVFNRFSGVPDRFSGSGSGTDFTLKISRVEAEDVGVYYCFQESFVPYTFGQGTKLEIKR | 3.51 | 
huB-E29-34 (antibody, human IgG1, kappa, V domains shown, Humanized B-E29 variant; human IgG1 (G1m3) / kappa (Km3), produced in CHO cells; also called huVH21/huVL6) VH: EVRLMASGGGLVQPGGSLRLSCAASEFTFSNYAMSWVRQAPGKGLEWVATISRGGDYTYYPESVKGRFTISRDNSKNTLYLQMNSLRAEDTAVYYCARRVSFITGGYAMDYWGQGTLVTVSS VL: DVVMTQSPLSLPVTLGQPASISCRSSQSIVDITGNTYLEWFQQRPGQSPRRLIYKVFNRFSGVPDRFSGSGSGTDFTLKISRVEAEDVGVYYCFQESFVPYTFGQGTKLEIKR | 3.89 | 
huB-E29-9 (antibody, human IgG1, kappa, V domains shown, Humanized B-E29 variant; human IgG1 (G1m3) / kappa (Km3), produced in CHO cells; also called huVH7/huVL1) VH: EVRLMASGGGLVQPGGSLRLSCAASEFTFSNYAMSWVRQAPGKGLEWVATISRGGDYTYYPDTVKGRFTISRDNSKNTLYLQMNSLRAEDTAVYYCARRVSAITGGWAMDYWGQGTLVTVSS VL: DVVMTQSPLSLPVTLGQPASISCRSSQSIVDITGNTYLEWYQQRPGQSPRLLIYKVFNRFSGVPDRFSGSGSGTDFTLKISRVEAEDVGVYYCFQDSFVPYTFGQGTKLEIKR | 1.99 | 
huB-E29-11 (antibody, human IgG1, kappa, V domains shown, Humanized B-E29 variant; human IgG1 (G1m3) / kappa (Km3), produced in CHO cells; also called huVH9/huVL1) VH: EVRLMASGGGLVQPGGSLRLSCAASEFTFSNYAMSWVRQAPGKGLEWVATISRGGDYTYYPDTVKGRFTISRDNSKNTLYLQMNSLRAEDTAVYYCARRVSMITGGFAMDYWGQGTLVTVSS VL: DVVMTQSPLSLPVTLGQPASISCRSSQSIVDITGNTYLEWYQQRPGQSPRLLIYKVFNRFSGVPDRFSGSGSGTDFTLKISRVEAEDVGVYYCFQDSFVPYTFGQGTKLEIKR | 0.98 | 
huB-E29-30 (antibody, human IgG1, kappa, V domains shown, Humanized B-E29 variant; human IgG1 (G1m3) / kappa (Km3), produced in CHO cells; also called huVH20/huVL1) VH: EVRLMASGGGLVQPGGSLRLSCAASEFTFSNYAMSWVRQAPGKGLEWVATISRGGDYTYYPDSVKGRFTISRDNSKNTLYLQMNSLRAEDTAVYYCARRVSFITGGYAMDYWGQGTLVTVSS VL: DVVMTQSPLSLPVTLGQPASISCRSSQSIVDITGNTYLEWYQQRPGQSPRLLIYKVFNRFSGVPDRFSGSGSGTDFTLKISRVEAEDVGVYYCFQDSFVPYTFGQGTKLEIKR | 5.87 | 

More lines, now with the values ahead:

EC50 [1] [nM] | EC50 [2] [nM] | Binder
0.813 | 0.347 | huB-E29-14 (antibody, human IgG1, kappa, V domains shown, Humanized B-E29 variant; human IgG1 (G1m3) / kappa (Km3), produced in CHO cells; also called huVH12/huVL1) VH: EVRLMASGGGLVQPGGSLRLSCAASEFTFSNYAMSWVRQAPGKGLEWVATISRGGDYTYYPDSVKGRFTISRDNSKNTLYLQMNSLRAEDTAVYYCARRVSMITGGWAFDYWGQGTLVTVSS VL: DVVMTQSPLSLPVTLGQPASISCRSSQSIVDITGNTYLEWYQQRPGQSPRLLIYKVFNRFSGVPDRFSGSGSGTDFTLKISRVEAEDVGVYYCFQDSFVPYTFGQGTKLEIKR
0.84 | 0.433 | huB-E29-7 (antibody, human IgG1, kappa, V domains shown, Humanized B-E29 variant; human IgG1 (G1m3) / kappa (Km3), produced in CHO cells; also called huVH5/huVL1) VH: EVRLMASGGGLVQPGGSLRLSCAASEFTFSNYAMSWVRQAPGKGLEWVATISRGGDYTYYPESVKGRFTISRDNSKNTLYLQMNSLRAEDTAVYYCARRVSFITGGWAMDYWGQGTLVTVSS VL: DVVMTQSPLSLPVTLGQPASISCRSSQSIVDITGNTYLEWYQQRPGQSPRLLIYKVFNRFSGVPDRFSGSGSGTDFTLKISRVEAEDVGVYYCFQDSFVPYTFGQGTKLEIKR
0.593 |  | huB-E29-12 (antibody, human IgG1, kappa, V domains shown, Humanized B-E29 variant; human IgG1 (G1m3) / kappa (Km3), produced in CHO cells; also called huVH10/huVL1) VH: EVRLMASGGGLVQPGGSLRLSCAASEFTFSNYAMSWVRQAPGKGLEWVATISRGGDYTYYPDTVKGRFTISRDNSKNTLYLQMNSLRAEDTAVYYCARRVSMITGGAAMDYWGQGTLVTVSS VL: DVVMTQSPLSLPVTLGQPASISCRSSQSIVDITGNTYLEWYQQRPGQSPRLLIYKVFNRFSGVPDRFSGSGSGTDFTLKISRVEAEDVGVYYCFQDSFVPYTFGQGTKLEIKR

Source: patent US20170137511A1 (CALYPSO BIOTECH, published 2017)
